These results are taken from a protein production outcome set (Wang et al. 2014).

The data set is described as follows: label from the status in PepcDB records.
Regarding “MFPQRSSELYRTPVTHQPPPALELAGNLEYPNLNIADLNARLENLSPRLHDCWDSIAINDHNHLALATNRREGRQWWGMLFGYGRDQMHHMSVDSANFKLQAEHTVNIVRYAEDDFLLVALGDTRLQAWSTYSKVRDSQSPYCLFLVGESSAHPTPISQLSVFKADPRTAVSGSADSTLNVWDLSGADMVSTYRSRSSHTDKLTGLATPAASVDKFVTCDRGGCARLWDVRAAAPSSTCLYADASHVLSFTSAAWAAASELQGDNHIYLGDYDGKVHTLDIRVPRKLAETREYFDKGHVAQLLINGPHLAAMSNLPASVKVANVQAGHEFIYTHQDTHSRLTDAVWTDDSTLITIGHGRKMVTHAIK”, the protein production entry was “failed”.

For “MFPSRRKAAQLPWEDGRSGLLSGGLPRKCSVFHLFVACLSLGFFSLLWLQLSCSGDVARAVRGQGQETSGPPRACPPEPPPEHWEEDASWGPHRLAVLVPFRERFEELLVFVPHMRRFLSRKKIRHHIYVLNQVDHFRFNRAALINVGFLESSNSTDYIAMHDVDLLPLNEELDYGFPEAGPFHVASPELHPLYHYKTYVGGILLLSKQHYRLCNGMSNRFWGWGREDDEFYRRIKGAGLQLFRPSGITTGYKTFRHLHDPAWRKRDQKRIAAQKQEQFKVDREGGLNTVKYHVASRTALSVGGAPCTVLNIMLDCDKTATPWCTFS”, the protein production result is recorded as “failed”.

For “MFQIIGIVLLFAMVFGSYIMAGGKMDVIIHAAPHELMAIGGAGVAAFLIGNSVTVIKATLGGFGTIFKGPKWKAQDYRDLLSLLFLLTKTMKSKGVIALEAHIEKPHESTIFSRYPKIAHDHFAVDFICDTLRMMTMNLEDPHQVEDAMEKQLEKHHHEAHGAAHALTQLSDGLPALGIVAAVLGVIKTMGSITEPPAVLGTMIGGALVGTFMGVFMAYGLVGPMATRLGGVLDEDHNFYKIIQAVLVAHLHGNAAQISVEIGRGNVPSAYQPSFAELEEALSQMPNE”, the protein production entry is “failed”.

In the case of “MFQKIAKECLAGFTVAIVALPLAIAFGIAATGTSEGALVGLYGAIFAGLFAALFGGTPGQVTGPTGPITVIATGVIATHGLEASFIVFMMAGLFQILFGVCKLGSYVRYIPYPVVSGFMNGIALIIILGEMKHVQNSFLLVVLTIIVMIVSGKWIKAIPSSLVALVGVTAMLPLFSSALEGLTVKLPVIGNLSLNKVIEKIGTIPEAMPTLHIPSLSGTGIAELILPALSIALLGSIDSLLTSVVMDNVTGTRHKSNKELVGQGIGNVMSGLFGGLAGAGATVRSIVNIRSGGKTALSASMHSVILFIFIMGLGSVVQYIPLAVLSGILILTGIGMFDWESMKKMHVAPKGDVVVMLVTMIVTVKFDLMIAVAFGIILAFIIYMVKCKERKASIVKEKEAIYKIKGPLSFLTVDRVFYALQDVKSPVVLRMKDTRYMDVSGAMALLNFIEQSGKSGLSVTLEQVPAHIEKILVTMASSEQKDKLLFTEADVMQGNALV”, the protein production result is listed as “failed”.

With “MFQRKTLQRRNLKGLNLNLHPDVGNNGQLQEKTETHQGQSRIEGHVMSNINAIQNNSNLFLRRGIKKKLTLDAFGDDQAISKPNTVVIQQPQNEPVLVLSSLSQSPCVSSSSSLSTPCIIDAYSNNFGLSPSSTNSTPSTIQGLSNIATPVENEHSISLPPLEESLSPAAADLKDTLSGTSNGNYIQLQDLVQLGKIGAGNSGTVVKALHVPDSKIVAKKTIPVEQNNSTIINQLVRELSIVKNVKPHENIITFYGAYYNQHINNEIIILMEYSDCGSLDKILSVYKRFVQRGTVSSKKTWFNELTISKIAYGVLNGLDHLYRQYKIIHRDIKPSNVLINSKGQIKLCDFGVSKKLINSIADTFVGTSTYMSPERIQGNVYSIKGDVWSLGLMIIELVTGEFPLGGHNDTPDGILDLLQRIVNEPSPRLPKDRIYSKEMTDFVNRCCIKNERERSSIHELLHHDLIMKYVSPSKDDKFRHWCRKIKSKIKEDKRIKREALDRAKLEKKQSERSTH”, the protein production entry is listed as “failed”.

Consider “MFRDFRMSLLVAVICLGLAAWWGHTSSMGIWQALWLCLVLSVLEVSLSFDNAVVNAGVLKHMNAFWQKLFLTVGILIAVFGMRLVFPIVIVSVATGMGLVPVMQMALKEPDRYSQVLTDNYPSIAAFGGMFLLLVFLNFLFDQERKLHWLGPVERLVGKLGKADAMSVIVAVSVLLGTKLFLPDGIFQSVLFAGLGGILLYLLVGSVDALFEAEESEDGSMGPAKRSGIAAFLYLEVLDASFSFDGVIGAFAITRDVVIIMLGLAIGAMFVRSMTVYLVHKGTLDEFVFLEHGAHYAIGVLAIIMLVGTVYHVPEVLTGLIGVAFIAASVWSSIRYRKRHHIGPTEI”, for which the protein production result is reported as “failed”.

For the sequence “MFRIKQLAWAMGCVSLMSGCTLYPWYQNKAGQAVNVKPVMEVRHAIRSADALYQLGRYYQAKVDYAEAIAAYEKALEADPRHVEAHNGLGVAHCLLDRHELALQYFRKAIGMAPLAAHLHNNLGYAHLVHGQEAEAVSAFERALLLEPHNQRARRHLAAVYKKAGLHDKAAALTVAPSGAPVGATKAPPTAPIPTPAPGTPAGTPAGIPSAAISAISPPMAAAPGEKQKLSCSAAARLLQVTPGVFEFRMAETEAMTAMPSGKIIGRTAPPQDSGKFSGQDIRIEVSNGNGLPGMARQVSDFLQQNGFARARLTDRQPYQQALTEIHYRPGHSGVAEEISRLMPGGSGVPTVESYNLRRDIHVRVMLGKDAVRQVAHLESPQKVQIAQGTAGAVE”, the protein production result was “failed”.

“MFRPQDDFTYLMPVHFGGGKFDPETLVTQKATALSLSFETERDLLENYIPEGFELLAPEVQVAFNKFTEINWLHGGQYNLINVAAPVRFHGKKDELDGAYTLVVWENKTAPILGGREQTGIPKIYADIEDLHIVRPHFATTVSYEGNTFLNMDFEATGSITGRDLDALKSQFLTMNTLGWRYIPKVGAPGAELSQFVLYPQGMEVETAEVGKGSLKWTELTPMQSPAQYYIVNSLASLPIKRVTQAVLVEGRAILRAMGARVIE”: the protein production entry is recorded as “not failed”.

As to “MFRQLKKNLVATLIAAMTIGQVAPAFADSADTLPDMGTSAGSTLSIGQEMQMGDYYVRQLRGSAPLINDPLLTQYINSLGMRLVSHANSVKTPFHFFLINNDEINAFAFFGGNVVLHSALFRYSDNESQLASVMAHEISHVTQRHLARAMEDQQRSAPLTWVGALGSILLAMASPQAGMAALTGTLAGTRQGMISFTQQNEQEADRIGIQVLQRSGFDPQAMPTFLEKLLDQARYSSRPPEILLTHPLPESRLADARNRANQMRPMVVQSSEDFYLAKARTLGMYNSGRNQLTSDLLDEWAKGNVRQQRAAQYGRALQAMEANKYDEARKTLQPLLAAEPGNAWYLDLATDIDLGQNKANEAINRLKNARDLRTNPVLQLNLANAYLQGGQPQEAANILNRYTFNNKDDSNGWDLLAQAEAALNNRDQELAARAEGYALAGRLDQAISLLSSASSQVKLGSLQQARYDARIDQLRQLQERFKPYTKMLEHHHHHH”, the protein production result was “not failed”.

For “MFSFLEKNPFFFTLAFIFVFAIAGLVEILPNFFKSARPIEGLRPYTVLETAGRQIYIQEGCYHCHSQLIRPFQAEVDRYGAYSLSGEYAYDRPFLWGSKRIGPDLHRVGDYRTTDWHEKHMFDPKSVVPHSIMPAYKHLFTKKSDFDTAYAEALTQKKVFGVPYDTENGVKLGSVEEAKKAYLEEAKKITADMKDKRVLEAIERGEVLEIVALIAYLNSLGNSRINANQNAK”, the protein production result was “failed”.

As to “MFSFVQMTGCLLPLTALTPLSHCTRPRNALALLQSSWKGGSLAISLVRNAVAAVLAAALSVPVSADVGAGSYLAARQAVFANDFSSAADYFARALAIDPQNPALMENMVLSQLALGRLEQAYPVAQLMQEAGLQSQVANIAIVVHLLSEERYQEVLDRDPEMRGVGKLVDGLVAGWAEMGLGSVARALAQFDKVADEAGLRGFANYHKAMALASVGDFEGAEALFAADDGALTTISRRAALARAEILSQLDRNDQALEMLADVFSGGFDPALSDIADRLVAGETLPFSLVRSVRDGLAEVFFTIGAALNGEASDDFTLVYIRSAVHLRPDHIDALLMTAGLLESLGQYDLAVATYKQIPNDSPDYHAAELGRAEALRRSAKPDAAIEVLEKLAKDYPSQPQAFVALGDLQRQQEAYDRAATAYDKALQLTDPGAPNMWFLHYARGICHERLGNWPGAEADFRAALELNPDQPQVLNYLGYSLVEKQEKLDEALDLIERAVAARPDSGYIVDSLGWVLFRLGRYDEAVGHMERAVELMPVDPVVNDHLGDVLWAVGRVREAEFQWRRALSFIKADDTDGEADPERIRRKLEIGLDRVLAEEGVPPLKVANGD”, the protein production result is “failed”.

For the sequence “MFSIIIPIYNSENYLRYSIESVLNQSIGFKENIELILIDDGSVDSSPQICESFKNLYPNNIKIMKIENSGPSAARNCGLSNVSERSKFIGFLDSDDAFSQNALQSVYDFFCDSEHVNIAVLPVYYTGEKEGGHKLNNRFEKGTRVINILNDYKAIHFYIGGTFYRRHTLTSTVLFDESIKFWEDAIFFNQLLLKEKRYGAVAEGKYFYRKRKEQDSLVDRSWFNKKRYTYLLNECYMTLLMDSFNKYDIVLPYLQFLIVYHIKLFLYPNYRDVYKSVLDQQEQRVFVDDFIKVLKFIDPQFIKEQDMPMYYKEFMFHLLKENTEALENIKKERVLHSSCTVTSAKIKGLRLELTGHFINQYYEMKENDRIYIKYFKRLKKCKRKELKKTIEVWGYKLRDFRYAGFVVEIPIWAFAFDFVLKTPNDSLELNHVNIFKSLLTRVFKKRLEHHHHHH”, the protein production entry is recorded as “not failed”.

For the sequence “MFSKIFKSFFYSWLATLFSTSLILCICFGNSHPVAIVNAQTPDAYKLVNQGIESYKKGDFHAAIKPWEAALDSYQKNNDFRNIAIINENLARTYQQLGNKSLTLSYWEKVKDYYHSQKNLQKVGRILTEIAQIYSNSGQTKKSYQSFMWCKYINLSNRECITNCPGTTR”, the protein production result is given as “failed”.

Consider “MFSLSTQTMSAVAQRHPQTPISTITASNRQSSLHFKINSNNPEAHAQMRSGDEKGAIASITIEFQSVEQLHLHLGIMHLLSGDMKGAIEDFNQAILINPNYAEAYKGRGVAKVQLGDEKEAIEDLQKAADIFQEQEETAKYQEVINIIRQINDK”, for which the protein production result was “failed”.

As to “MFTGFGAASFSAPAKAAAQTNTLSENTNQSAAELVKNLYNTAYKGEMPQQAQGLTINKSTKGDVHAAFGEPERPVGGDNRFDLYHWNMGQPGYGFSYHKDMTISEIRYFGTGVERQLNLGGVTPEVLQKQLGPVNRVLTVPFTDEIDYVYDTGRYELHFVIGTDQTADHVNLKAKLEHHHHHH”, the protein production entry is “not failed”.

As for “MFTNSGVFIMYKILEKKEIAMRNTWYKIYAPHVAKKVQPGQFVIVRAFPNGERIPLTPIMWDREEGWIVLVAFTKGKTTMKMAMELKEGDEILNVAGPLGNPAPMEKFGKILAIGAYVGIAEVYPIAKAWQEIGNDVTTLHVTFEPMVILKDYFEKAVSRHIVEPVKIDQEKSFQENTKNVTKALTAKVKELLDNENWDLVFMVGPPGDQKAVFEVVKKYGIPMKVDLHPIMVDGTGMCGACRVTVGGEVKFACVDGPEFDAYLVDWDELIHRVGFYSKLEKLALEKYMEELKAKGVI”, the protein production result is “failed”.

As to “MFVGHLPGAYLIFRVVTPRIERMAFTAAMLGAIAPDLDMLRFYFVDGRAFHHHEYLTHRPILWTGLLLCGVLIGMRSRRIGVPLAFFGAGGLVHMLLDSIAGKIAWAWPVSDFAAPLVVVPATQSHWILSFLSHWTFAVELGITVLALVLWRWLPRRATARR”, the protein production result was “failed”.

As to “MFWTELCFILVALMIGARIGGVFLGMVGGLGVGVMVFIFGLTPSTPPIDVILIILSVVLAAASLQASGGLDLLVKLAEKILRRHPRYITLLAPFICYIFTFMSGTGHVVYSLLPVISEVARDSGIRPERPLSISVIASQQAITASPISAAMAAMIGLMAPLGVSISTIMMICVPATLIGVAMGAIATFNKGKELKDDPEYQRRLAEGLIKPAQKESKNTVVTSRAKLSVALFLTSAIVIVLLGLIPALRPMVETAKGLQPLSMSAAIQITMLSFACLIVLLCRPQVDQIISGTVFRAGALAIVCAFGLAWMSETFVNGHIALIKAEVQTLLQQHTWLIAIMMFFVSAMVSSQAATTLILLPLGLALGLPAYALIGSWPAVNGYFFIPVAGQCLAALAFDDTGTTRIGKYVLNHSFMRPGLVNVIVSVIVGLLIGKMVLA”, the protein production result is “failed”.
